The text below walks through data of PMC11696079.

In assay [1] the target is circPETH-147aa, recombinant wild type (human). The assay can be described thus: SPR. On the technique in general: In SPR one partner is held on a chip, and binding of the other changes the refractive index at the surface.
The target of assay [2] is circPETH-147aa MEG/3 A, recombinant (human). The assay can be described thus: SPR.

B1: recombinant wild-type ALDOA (WT) (enzyme)
chain: PYQYPALTPEQKKELSDIAHRIVAPGKGILAADESTGSIAKRLQSIGTENTEENRRFYRQLLLTADDRVNPCIGGVILFHETLYQKADDGRPFPQVIKSKGGVVGIKVDKGVVPLAGTNGETTTQGLDGLSERCAQYKKDGADFAKWRCVLKIGEHTPSALAIMENANVLARYASICQQNGIVPIVEPEILPDGDHDLKRCQYVTEKVLAAVYKALSDHHIYLEGTLLKPNMVTPGHACTQKFSHEEIAMATVTALRRTVPPAVTGITFLSGGQSEEEASINLNAINKCPLLKPWALTFSYGRALQASALKAWGGKKENLKAAQEEYVKRALANSLACQGKYTPSGQAGAAASESLFVSNHAY
As a reminder, the Kd is a measure of binding affinity in units of concentration. Consider B1, for which the Kd stood at 42.4 nM in assay [1] and 1410 nM in assay [2].
